Results: the DeepSol protein solubility set

Test: soluble on expression in E. coli; label from the status in PepcDB or PDB records

Sequence	soluble on expression in E. coli
MKIRLLVSILCILFAGCALQQTNRALQPDQRWVTQTLPNGLTYHLYPDSEQEVSIRLYVHAGSMQETAQQAGYAHFIEHMAFNGTRHYQHNDVIRMFEQSGAQFGADFNALTGYDRTVYQLDLPNAQNIDKALLWFADIADGLAFDADEVEKEKGVILGEFRASRTENMSLEQQFYLHQIQGTSYADRDPLGSRELVQAATPDSLKAFYQQWYQPQLAELVITGNFTLEQGQQWVENYFSSWKKGSTEKPASIYHQALNNQDLVAPVTAGESPSLTLIFPQGSAAIKDYASQQEFWRDDVGEQLLHTRLVAAFNDAAQAITGIYATHYEIEGQRYTLISVGFAAEQREKVQALLLETLASMRDYGVTKNELDIILRGYREHLTFLQEDREAITPASHANQKVYSIVFDTPIQATLDYQASLSEFIASATPEMINRHIQQQLSQNPVWVVGVAATEDAQALNKALPQWRNDLAQPGNQPIDQQIDSPFTQQFTAGEVVKQLDINDDPQVTYWQLDNGIDVYYLRNIEAKDRVFVQYASSGGQFALPADLLPAAEIATAVQTRSGLDTLNGSQFDRYLRQKDIGFYSYIASTSHGFEANSKAQELPELLEILHLLSTQVKVSPDQLNSVKTEFTQNRSAYFDSPIGAFFRTVTNQSFIETSPYRIRTPEQIAQVTAQQIEQVHQRLFSEGRNNTLVIVGDIERSQITPMLRQYVASIPLSKGTLSPMTSQLIKPVAPRLELALNNENSTQYSLRLISETQPRTAKTVFIDDMLQRIATQRLLAEVREHQGLDYTPQVIPYVVDGDILNDWVLSALVDPKSEPQVAKVMHEVARELAQGVTQQELDVVKQKFLIDMKPLNKSPEQQAYFMLRYAIHHYGVETIYKVEELTKSITLDDINQRAQTLFGKDTMSQELIMTPKANPKG	not soluble
MGSDKIHHHHHHLAKRKNHAQAIETTGANLGFEPQLWQTANALRGSMDAAEYKHVVLGLIFLKYISDAFEEHRERLQNIPNADPEDPDEYRADNVFWVPPDARWVELRNNARQPNIGELIDQAMIAVERDNPSLKGVLPKDYARPALDQQRLGQLIDLVSNIPVGTASARSKDVLGRVYEYFLSQFASAEGKKGGEFYTPRCVVRLLVEMLEPYQGRVYDPCCGSAGMFIQSVEFIEAHATGNGNGSRARARISIYGQELNYTTWRLAKMNLAIRGIDGRIEQGDTFRNDRFPDLKADYILANPPFNMKEWGGEQLRNDKRWQYGIPPVGNANFAWVQHIVHHLAPAGVAGFVLANGSMSSNQSGEGEIRRKLIEADLVDCMVALPGQLFYSTQIPACLWFLARNRNNGKFRDRRKQILFIDARRLGRMVDRIHRELTDEEIERIACTYHAWRGESDAGEYRDIPGFCKSASLEDVRKHGYVLTPGRYVGSEVREDDDEPFAEKMQWLVAQLREQQAEAAKLDEAIVANLQELGFWEQKR	not soluble
MPFPSRSLRATLCSAPVRMPDAAQKNAATPPPPLALSKPSPSPWAALLTPSSLSFPCSPSLPTYRRTRTAMHGSPPARGLQRRIKVPLMASAPSSIAFDIAAPTAAAWIARWMPVASPRRCSPLLRLCGDYPRCAVAAALSCQRLWIRSTSPLACSTAAGQTRSTPKMTKRPRRGIRRPSRAAGRLGSDTEEAENAALCQRHPEEHAGIFQSQHIKPFPVRAAIDIGTGGVVSLCVARVDATVGAIQKLMYQTQLPLHLEALPTSMSSPSSPLSASSSSFTLSERTMEDITNKVHILQGAMRRNAFEGLSERAAVLSWPLCLARNAGQLAERLTKEFKVDVRVLGADFDVEWPPSVARFLAGEGASTPETADDSRSTVDKGTRDSVTRKGAENTLKSLLCAARAPTTSGLARHKRKVTAPPSSGSASSRGAMDARTQLDTLAFLAHAAVSQCVAPQRLLVLHEDPQRGLRLLGLGTSAADDIADLLDDATTPEERQSLYAIAHGPGPSLLEAGERTPSSGKQVFVAAHAQSRQQASLLPTLSSMRDCQGSADDGTSSDAAPAAASLMRLVEHPLPVDVASAHRYCITQIQRRPLESYGLHASSPNPLLADEFAALRGLLVGMIQPTLPAWVRRKAQLGGVLCGTSHNGGLLNLAARVSQQTHVSLEHLEVHAQYHFCGLTDVLLAESFPNPFLVLPSVALTAAVLRSLESPRITYLPEVSVAAALLVQPSLWLHARATEVRARLARDPFYASTTAAQRGRMFGRPHRKDNPTAAPDATWVKEGRWNPISFSESMRGT	not soluble
MDTQQIDVMVADASHEVYVDTILETIRNAAAVRGTGIAERTHEYVATKMKEGKAIIALCGDTFAGFTYIESWGNKQYVATSGLIVHPDFRGLGLAKRIKQASFQLARLRWPKAKIFSLTSGAAVMKMNTELGYVPVTFNELTDDEAFWKGCEGCTNHDILAAKNRKFCICTAMLYDPTDPRNIKKEQERNNI	not soluble
